Data set [1] concerns HeLa Kyoto. As to the kind of experiment: solubility change mitosis vs G1/S (difference of NP-40 vs SDS log2 ratios) (log2 ratio difference); higher = more soluble in mitosis.
For data set [2], the system named is HeLa Kyoto. Nature of the data set: thermal stability score vs G1/S (z-score of summed log2 fold changes over temperatures); higher = more thermally stable than in G1/S.
For data set [3], the system named is HeLa Kyoto. Nature of the data set: solubility in G1/S (NP-40 vs SDS abundance) (log2 ratio); higher = more soluble. The following applies: cell cycle stage: G1/S.
Data set [4] relates to HeLa Kyoto. Nature of the data set: melting temperature (median over replicates), in situ; higher = more thermally stable.
The mark [5] stands for this setting: cell cycle stage: early G1 (4.5 h after nocodazole release).
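Throughout, for melting temperature (median over replicates), in situ: HeLa Kyoto cells synchronized by double thymidine or nocodazole block, proteins quantified by TMT10plex mass spectrometry, three independent biological replicates.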
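Throughout, for solubility change mitosis vs G1/S (difference of NP-40 vs SDS log2 ratios): synchronized HeLa Kyoto cells (double thymidine block for G1/S, nocodazole release for mitosis), protein amounts in NP-40 versus SDS lysates quantified by mass spectrometry, three biological replicates.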
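Throughout, for solubility in G1/S (NP-40 vs SDS abundance): HeLa Kyoto cells arrested at G1/S by double thymidine block, proteins quantified by TMT10plex mass spectrometry in mild NP-40 versus SDS extracts, three biological replicates.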
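Throughout, for thermal stability score vs G1/S (z-score of summed log2 fold changes over temperatures): synchronized HeLa Kyoto cells, proteins quantified by TMT10plex mass spectrometry, three biological replicates, mitosis taken 0.5 h after nocodazole release, G1/S directly after double thymidine block.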

On to “MEGKWLLCMLLVLGTAIVEAHDGHDDDVIDIEDDLDDVIEEVEDSKPDTTAPPSSPKVTYKAPVPTGEVYFADSFDRGTLSGWILSKAKKDDTDDEIAKYDGKWEVEEMKESKLPGDKGLVLMSRAKHHAISAKLNKPFLFDTKPLIVQYEVNFQNGIECGGAYVKLLSKTPELNLDQFHDKTPYTIMFGPDKCGEDYKLHFIFRHKNPKTGIYEEKHAKRPDADLKTYFTDKKTHLYTLILNPDNSFEILVDQSVVNSGNLLNDMTPPVNPSREIEDPEDRKPEDWDERPKIPDPEAVKPDDWDEDAPAKIPDEEATKPEGWLDDEPEYVPDPDAEKPEDWDEDMDGEWEAPQIANPRCESAPGCGVWQRPVIDNPNYKGKWKPPMIDNPSYQGIWKPRKIPNPDFFEDLEPFRMTPFSAIGLELWSMTSDIFFDNFIICADRRIVDDWANDGWGLKKAADGAAEPGVVGQMIEAAEERPWLWVVYILTVALPVFLVILFCCSGKKQTSGMEYKKTDAPQPDVKEEEEEKEEEKDKGDEEEEGEEKLEEKQKSDAEEDGGTVSQEEEDRKPKAEEDEILNRSPRNRKPRRE [CANX]”, for which, in data set [1], the “solubility change mitosis (log2)” value was -0.0953. For the same sequence, the thermal stability score stood at 2.71 in data set [2] (setting [5]) and 3.35 in data set [2] (cell cycle stage: mitosis). In data set [3], the “solubility in G1/S (log2)” value is 0.339. Moreover, the melting temperature was 53.7 °C in data set [4] (cell cycle stage: G1/S) and 53.9 °C in data set [4] (cell cycle stage: mitosis).

Turning to “MEGLAGYVYKAASEGKVLTLAALLLNRSESDIRYLLGYVSQQGGQRSTPLIIAARNGHAKVVRLLLEHYRVQTQQTGTVRFDGYVIDGATALWCAAGAGHFEVVKLLVSHGANVNHTTVTNSTPLRAACFDGRLDIVKYLVENNANISIANKYDNTCLMIAAYKGHTDVVRYLLEQRADPNAKAHCGATALHFAAEAGHIDIVKELIKWRAAIVVNGHGMTPLKVAAESCKADVVELLLSHADCDRRSRIEALELLGASFANDRENYDIIKTYHYLYLAMLERFQDGDNILEKEVLPPIHAYGNRTECRNPQELESIRQDRDALHMEGLIVRERILGADNIDVSHPIIYRGAVYADNMEFEQCIKLWLHALHLRQKGNRNTHKDLLRFAQVFSQMIHLNETVKAPDIECVLRCSVLEIEQSMNRVKNISDADVHNAMDNYECNLYTFLYLVCISTKTQCSEEDQCKINKQIYNLIHLDPRTREGFTLLHLAVNSNTPVDDFHTNDVCSFPNALVTKLLLDCGAEVNAVDNEGNSALHIIVQYNRPISDFLTLHSIIISLVEAGAHTDMTNKQNKTPLDKSTTGVSEILLKTQMKMSLKCLAARAVRANDINYQDQIPRTLEEFVGFH [FEM1B]”, the “solubility change mitosis (log2)” value in data set [1] was -0.0104. Also, the results for the thermal stability score in data set [2] (setting [5]) and in data set [2] (cell cycle stage: mitosis) were 0.363 and -1.04, respectively. Besides, the “solubility in G1/S (log2)” value in data set [3] is -0.0515. The values for the melting temperature in data set [4] (cell cycle stage: G1/S) and in data set [4] (cell cycle stage: mitosis) were 53.5 °C and 52.2 °C, respectively.

“MEGLLHYINPAHAISLLSALNEERLKGQLCDVLLIVGDQKFRAHKNVLAASSEYFQSLFTNKENESQTVFQLDFCEPDAFDNVLNYIYSSSLFVEKSSLAAVQELGYSLGISFLTNIVSKTPQAPFPTCPNRKKVFVEDDENSSQKRSVIVCQSRNEAQGKTVSQNQPDVSHTSRPSPSIAVKANTNKPHVPKPIEPLHNLSLTEKSWPKDSSVVYAKSLEHSGSLDDPNRISLVKRNAVLPSKPLQDREAMDDKPGVSGQLPKGKALELALKRPRPPVLSVCSSSETPYLLKETNKGNGQGEDRNLLYYSKLGLVIPSSGSGSGNQSIDRSGPLVKSLLRRSLSMDSQVPVYSPSIDLKSSQGSSSVSSDAPGNVLCALSQKSSLKDCSEKTALDDRPQVLQPHRLRSFSASQSTDREGASPVTEVRIKTEPSSPLSDPSDIIRVTVGDAATTAAASSSSVTRDLSLKTEDDQKDMSRLPAKRRFQADRRLPFKKLKVNEHGSPVSEDNFEEGSSPTLLDADFPDSDLNKDEFGELEGTRPNKKFKCKHCLKIFRSTAGLHRHVNMYHNPEKPYACDICHKRFHTNFKVWTHCQTQHGIVKNPSPASSSHAVLDEKFQRKLIDIVREREIKKALIIKLRRGKPGFQGQSSSQAQQVIKRNLRSRAKGAYICTYCGKAYRFLSQFKQHIKMHPGEKPLGVNKVAKPKEHAPLASPVENKEVYQCRLCNAKLSSLLEQGSHERLCRNAAVCPYCSLRFFSPELKQEHESKCEYKKLTCLECMRTFKSSFSIWRHQVEVHNQNNMAPTENFSLPVLDHNGDVTGSSRPQSQPEPNKVNHIVTTKDDNVFSDSSEQVNFDSEDSSCLPEDLSLSKQLKIQVKEEPVEEAEEEAPEASTAPKEAGPSKEASLWPCEKCGKMFTVHKQLERHQELLCSVKPFICHVCNKAFRTNFRLWSHFQSHMSQASEESAHKESEVCPVPTNSPSPPPLPPPPPLPKIQPLEPDSPTGLSENPTPATEKLFVPQESDTLFYHAPPLSAITFKRQFMCKLCHRTFKTAFSLWSHEQTHN [ZBTB21]”: the “solubility change mitosis (log2)” value in data set [1] is -0.0564. For the same sequence, the thermal stability score in data set [2] (setting [5]) came to 0.647; in data set [2] (cell cycle stage: mitosis) it was 0.374. Moreover, in data set [3], the “solubility in G1/S (log2)” value was -0.0999. In addition, in data set [4] (cell cycle stage: mitosis), the melting temperature is 51.7 °C.

With “MEGSEPVAAHQGEEASCSSWGTGSTNKNLPIMSTASVEIDDALYSRQRYVLGDTAMQKMAKSHVFLSGMGGLGLEIAKNLVLAGIKAVTIHDTEKCQAWDLGTNFFLSEDDVVNKRNRAEAVLKHIAELNPYVHVTSSSVPFNETTDLSFLDKYQCVVLTEMKLPLQKKINDFCRSQCPPIKFISADVHGIWSRLFCDFGDEFEVLDTTGEEPKEIFISNITQANPGIVTCLENHPHKLETGQFLTFREINGMTGLNGSIQQITVISPFSFSIGDTTELEPYLHGGIAVQVKTPKTVFFESLERQLKHPKCLIVDFSNPEAPLEIHTAMLALDQFQEKYSRKPNVGCQQDSEELLKLATSISETLEEKPDVNADIVHWLSWTAQGFLSPLAAAVGGVASQEVLKAVTGKFSPLCQWLYLEAADIVESLGKPECEEFLPRGDRYDALRACIGDTLCQKLQNLNIFLVGCGAIGCEMLKNFALLGVGTSKEKGMITVTDPDLIEKSNLNRQFLFRPHHIQKPKSYTAADATLKINSQIKIDAHLNKVCPTTETIYNDEFYTKQDVIITALDNVEARRYVDSRCLANLRPLLDSGTMGTKGHTEVIVPHLTESYNSHRDPPEEEIPFCTLKSFPAAIEHTIQWARDKFESSFSHKPSLFNKFWQTYSSAEEVLQKIQSGHSLEGCFQVIKLLSRRPRNWSQCVELARLKFEKYFNHKALQLLHCFPLDIRLKDGSLFWQSPKRPPSPIKFDLNEPLHLSFLQNAAKLYATVYCIPFAEEDLSADALLNILSEVKIQEFKPSNKVVQTDETARKPDHVPISSEDERNAIFQLEKAILSNEATKSDLQMAVLSFEKDDDHNGHIDFITAASNLRAKMYSIEPADRFKTKRIAGKIIPAIATTTATVSGLVALEMIKVTGGYPFEAYKNCFLNLAIPIVVFTETTEVRKTKIRNGISFTIWDRWTVHGKEDFTLLDFINAVKEKYGIEPTMVVQGVKMLYVPVMPGHAKRLKLTMHKLVKPTTEKKYVDLTVSFAPDIDGDEDLPGPPVRYYFSHDTD [UBA6]”, the “solubility change mitosis (log2)” value in data set [1] was -0.192. For the same sequence, the thermal stability score in data set [2] (setting [5]) was -0.786; in data set [2] (cell cycle stage: mitosis) it was -0.409. Further, in data set [3], the “solubility in G1/S (log2)” value worked out at 0.00865. Besides, the melting temperature turned out to be 50.7 °C in data set [4] (cell cycle stage: G1/S) and 49.8 °C in data set [4] (cell cycle stage: mitosis).

Source of the values: the supplement of paper PMC5998384.
